Laboratory results taken from patent US20170066801A1, “ALPHA3BETA HYDROGEN BOND SURROGATE MACROCYCLES AS MODULATORS OF RAS” (NEW YORK UNIVERSITY, priority 2014, published 2017).
Non-standard residues stand in square brackets, D forms with d. Residues, ends and D or L forms follow the SMILES beside them. No end group written: not given here. β3hI = CC[C@H](C)[C@H](N)CC(=O)O; β3hE = N[C@@H](CCC(=O)O)CC(=O)O; β3hA = C[C@H](N)CC(=O)O; Flu = fluorescein

Legend:
HRas^(1-166) = target: T1, HRas^(1-166) (Homo sapiens, UniProt P01112); assay: In vitro pulldown binding assay with 6×His-tagged HRas 1-166 and fluorescein-tagged SOS peptides; details: fluorescein-tagged peptides, 4° C., 1 hour
T1 construct: 6×His-tagged HRas WT 1-166; made in house
Description: Recombinantly purified 6×His-tagged HRas WT 1-166 was incubated with Ni-NTA sepharose beads, generating recombinant Ras on solid support. FITC labeled HBS peptides were incubated in the presence of recombinant HRas-6×His/Ni-NTA Sepharose complex at 4° C. for 1 hour. Beads complexes were pelleted and washed 5× with protein buffer (20 mM Tris-HCl pH 7.6, 50 mM NaCl, 4 mM EDTA, 10 mM MgCl2), resuspended in reducing buffer (126 mM Tris-HCL pH 6.8, 20% glycerol, 4% SDS, 0.02% bromophenol blue, 2.5% β-mercaptoethanol), boiled for 10 minutes at 95° C., and subjected to SDS-PAGE with an acrylamide percentage of 20% to allow for sufficient resolution of the HBS helices. SDS-PAGE gels were imaged using an ImageQuant™ LAS 4000 biomolecular imager (GE Healthcare, Piscataway, N.J., USA). Quantification of fluorescence by FITC-HBS helices in gel was determined by manufacturer provided ImageQuant™ TL software. Raw values were normalized to total input and plotted on a semilog graph with GraphPad Prism version 6.00 for OSX (GraphPad Software, La Jolla Calif. USA, www.graphpad.com).
The binding affinity of the designed compounds for Ras was determined using in vitro pulldown assays with recombinantly purified 6×His-tagged HRas^(1-166) and fluorescein-tagged SOS peptides (FIGS. 8 and 9, and Table 2). […]

[1] = target: 6×His-tagged HRas WT 1-166 (UniProt P01112); assay: in vitro pull-down: fluorescein-tagged peptide on 6×His-HRas 1-166 / Ni-NTA beads, in-gel fluorescence

Molecule: CC[C@H](C)[C@@H](CC(=O)N[C@@H](Cc1ccc(O)cc1)C(=O)N[C@@H](CCCNC(=N)N)C(=O)N[C@@H](CC(C)C)C(=O)N[C@@H](CCC(=O)O)CC(=O)N[C@@H](CC(C)C)C(=O)N[C@@H](CC(C)C)C(=O)N[C@@H](CCCCN)C(=O)N[C@@H](C)CC(=O)N[C@@H](CCC(=O)O)C(=O)N[C@@H](CCC(=O)O)C(=O)N[C@@H](C)C(=O)N[C@@H](CC(N)=O)C(N)=O)NC(=O)CNC(=O)[C@H](CCC(=O)O)NC(=O)[C@H](Cc1ccccc1)NC(C)=O [α3β-UNCSOS, Ac-FEGiYRLeLLKaEEAN-NH2] (Ac-FEG[β3hI]YRL[β3hE]LLK[β3hA]EEAN-NH2)
- Kd (HRas^(1-166)): 30.6 ± 12 µM

B1: α3β-UNCSOS-Flu (peptide)
peptide: Ac-FEG[β3hI]YRL[β3hE]LLK[β3hA]EEANK(Flu)-NH2
modifications: not fully specified (residue 3); printed as Ac-FEG*iYRLeLLKaEEANK(Flu)-NH2
- fold weaker affinity than α3β-HBSSOS [1]: 136 fold

B2: α-HBSSOS (fluorescein-tagged) (peptide)
peptide: FEGIYRLELLKAEEAN
modifications: not fully specified; also: hydrogen bond surrogate macrocycle at N-terminus, fluorescein tag, site and linker not given here
- Kd [1]: 7.75 µM
